The record followed here is article PMC7921410, “Structure of mammalian Mediator complex reveals Tail module architecture and interaction with a conserved core” (Nature Communications, 2021).

To fix the notation:
B1: MED17 (natural protein, mouse (Mus musculus; endogenous in CH12), UniProt Q8VCD5 1-649, looked up)
chain: MSGVRAVRISIESACEKQVQEVGLDGTETYLQPLSMSQNLARLAQRIDFSQGSGSEEEEAAGPDGDAPDWGGAGADQDDEEGLVKFQPSLWPWDSVRNNLRSALTEMCVLYDVLSIVRDKKFMTLDPVSQDALPPKQSPQTLQLISKKKSLAGAAQILLKGAERLTKSVAENQENKLQRDFNSELLRLRQHWKLRKVGDKILGDLSYRSAGSLFPHHGTFEVIKNTDIDLDKKIPEDYCPLDVQIPSDLEGSAYIKVSIQKQAPDIGDLGTVNLFKRPLPKSKPGSPHWQTKLEAAQNVLLCKEIFAQLSREAVQIKSQIPHIVVKNQIISQPFPSLQLSISLCHSSDDKKSQKCAAEKPGQEDHLYVLEHNLHLLIREFHKQTLSSIVMPHPASAPFGHKRMRLSGPQAFDKNEINSIQSTEGLLEKIIKQAKHIFLRSRTAATIDSLASRIEDPQIQAHWSNINDVYESSVKVLITSQGYEQICKSIQLQLNIGVEQVRVVHRDGRVIMLSHQEQELQDFLLSQMSQHQVHAVQQLAKVMGWQVLSFSNHVGLGPIESIGNASAITVASPSGDYAISVRNGPESGSKIMVQFPRNQCKDLPKSDVLQDSKWSHLRGPFKEVQWNKMEGRNFVYKMELLMSALSPCLL
notes: MED17, Mus musculus, endogenous Head module scaffold subunit of Mediator; source: endogenous, CH12 mouse B lymphoma nuclear extract; immunopurified as part of Mediator (FLAG M2 agarose, FLAG peptide elution)
B3: MED27 (natural protein, mouse (Mus musculus; endogenous in CH12), UniProt Q9DB40 1-311, looked up)
chain: MADVLSVGVNLEAFSQAISAIQALRSSVSRVFDCLKDGMRNKETLEGREKAFIANFQDNLHSVNRDLNELERLSNLVGKPSENHPLHNSGLLSLDPVQDKTPLYSQLLQAYKWSNKLQYHAGLASGLLNQQSLKRSANQMGVSAKRRPKAQPTTLVLPPQYVDDVISRIDRMFPEMSIHLSRPNGTSAMLLVTLGKVLKVIVVMRSLFIDRTIVKGYNESVYTEDGKLDIWSKSSYQVFQKVTDHATTALLHYQLPQMPDVVVRSFMTWLRSYIKLFQAPCQRCGKFLQDGLPPTWRDFRTLEAFHDTCRQ
notes: MED27, Mus musculus, endogenous upper Tail subunit of Mediator; source: endogenous, CH12 mouse B lymphoma nuclear extract; immunopurified as part of Mediator (FLAG M2 agarose, FLAG peptide elution)

Holding throughout (test): cryo-EM structure; endogenous mouse Mediator immunopurified from CH12 nuclear extract through 3×FLAG-MED19 or 3×FLAG-MED25; eluted in 50 mM HEPES pH 7.9, 100 mM KCl, 5% glycerol, 1 mM EDTA, 0.005% NP-40; map at 4.0 Å overall, focused refinement of the MED1 and knob/hook ends (6-10 Å)
What all share (details): both partners purified

One experiment deals with T1, MED15 (mouse (Mus musculus; endogenous in CH12), UniProt Q924H2 1-789).
T1 construct: MED15, Mus musculus, endogenous lower Tail subunit of Mediator; only the C-terminal portion (from residue 620) is seen in the map; source: endogenous, CH12 mouse B lymphoma nuclear extract; immunopurified as part of Mediator (FLAG M2 agarose, FLAG peptide elution)
T1 sequence (looked up): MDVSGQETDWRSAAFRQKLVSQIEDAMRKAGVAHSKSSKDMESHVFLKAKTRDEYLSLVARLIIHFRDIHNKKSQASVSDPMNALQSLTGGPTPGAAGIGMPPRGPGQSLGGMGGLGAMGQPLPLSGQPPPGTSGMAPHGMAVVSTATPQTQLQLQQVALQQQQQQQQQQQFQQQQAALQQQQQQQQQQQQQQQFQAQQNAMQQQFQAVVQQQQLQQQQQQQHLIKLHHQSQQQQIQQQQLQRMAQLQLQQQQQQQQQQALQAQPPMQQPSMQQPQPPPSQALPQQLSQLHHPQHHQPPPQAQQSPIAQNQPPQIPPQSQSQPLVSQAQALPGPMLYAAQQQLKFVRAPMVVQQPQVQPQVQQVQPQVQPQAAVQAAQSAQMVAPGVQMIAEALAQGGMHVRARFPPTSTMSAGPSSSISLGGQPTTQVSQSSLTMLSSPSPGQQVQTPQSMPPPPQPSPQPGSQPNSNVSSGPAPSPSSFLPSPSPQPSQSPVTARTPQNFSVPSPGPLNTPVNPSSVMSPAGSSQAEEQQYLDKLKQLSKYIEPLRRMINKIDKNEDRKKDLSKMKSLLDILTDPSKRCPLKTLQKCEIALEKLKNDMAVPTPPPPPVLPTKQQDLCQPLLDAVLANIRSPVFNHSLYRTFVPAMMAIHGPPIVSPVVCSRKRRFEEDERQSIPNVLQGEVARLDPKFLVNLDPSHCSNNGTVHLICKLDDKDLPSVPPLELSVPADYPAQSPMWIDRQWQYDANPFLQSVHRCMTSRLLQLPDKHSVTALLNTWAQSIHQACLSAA

The experiment “MED27” deals with B3.
The target of a further experiment is T2, MED16 (mouse (Mus musculus; endogenous in CH12), UniProt Q6PGF3 1-828).
T2 construct: MED16, Mus musculus, endogenous lower Tail subunit of Mediator; source: endogenous, CH12 mouse B lymphoma nuclear extract; immunopurified as part of Mediator (FLAG M2 agarose, FLAG peptide elution)
T2 sequence (looked up): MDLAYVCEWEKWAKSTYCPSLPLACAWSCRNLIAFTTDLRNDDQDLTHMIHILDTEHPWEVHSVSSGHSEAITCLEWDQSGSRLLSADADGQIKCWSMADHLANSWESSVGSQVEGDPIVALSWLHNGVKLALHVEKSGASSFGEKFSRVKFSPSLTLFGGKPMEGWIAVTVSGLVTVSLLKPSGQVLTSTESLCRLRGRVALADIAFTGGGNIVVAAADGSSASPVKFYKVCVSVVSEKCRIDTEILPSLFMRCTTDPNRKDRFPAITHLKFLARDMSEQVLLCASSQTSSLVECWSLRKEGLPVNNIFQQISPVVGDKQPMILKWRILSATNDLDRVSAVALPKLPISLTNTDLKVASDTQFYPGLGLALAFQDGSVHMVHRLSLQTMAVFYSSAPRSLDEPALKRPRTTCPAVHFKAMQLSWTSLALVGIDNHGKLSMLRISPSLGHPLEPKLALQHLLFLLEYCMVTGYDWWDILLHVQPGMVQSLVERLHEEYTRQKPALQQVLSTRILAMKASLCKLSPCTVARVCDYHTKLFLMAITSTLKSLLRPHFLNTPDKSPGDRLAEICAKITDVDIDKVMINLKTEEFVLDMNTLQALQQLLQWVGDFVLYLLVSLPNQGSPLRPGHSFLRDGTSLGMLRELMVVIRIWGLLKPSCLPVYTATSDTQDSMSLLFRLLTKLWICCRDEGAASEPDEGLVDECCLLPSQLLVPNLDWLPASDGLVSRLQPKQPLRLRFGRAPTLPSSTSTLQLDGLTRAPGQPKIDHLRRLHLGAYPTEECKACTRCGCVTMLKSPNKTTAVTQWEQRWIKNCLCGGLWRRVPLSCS

The experiment “MED17” concerns the target B1.

For B1, the binding result with MED15 is reported as “binds”.

B2: MED29 (natural protein, mouse (Mus musculus; endogenous in CH12), UniProt Q9DB91 1-199, looked up)
chain: MAAPQPQAAAVSSASGVSGPGSAGGPGPQQQPQPTQLVGSAQSGLLQQQQQDFDPVQRYKMLIPQLKESLQTLMKVAAQNLIQNTNIDNGQKSSDAPLQRFDKCLEEFYALCDQLELCLRLAHECLSQSCDSAKHSPTLVPTATKPDAVQPDSLPYPQYLAVIKAQITCAKDIHTALLDCANKVTGKTTAPSTGPGGSL
notes: MED29, Mus musculus, endogenous upper Tail subunit of Mediator; source: endogenous, CH12 mouse B lymphoma nuclear extract; immunopurified as part of Mediator (FLAG M2 agarose, FLAG peptide elution)
Regarding B2, the binding result with MED15, with MED27 and with MED16 was “binds” throughout.
Consider B3, for which the binding result with MED15, with MED17 and with MED16 was “binds” in each case.
